These results are taken from publication PMC10334784 (Proceedings of the National Academy of Sciences of the …, 2023).

B1: HCoV-OC43 nucleocapsid (N) protein, 2X-StrepTag tagged (natural protein)
chain: MSFTPGKQSSSRASSGNRSGNGILKWADQSDQVRNVQTRGRRAQPKQTATSQQPSGGNVVPYYSWFSGITQFQKGKEFEFVEGQGPPIAPGVPATEAKGYWYRHNRGSFKTADGNQRQLLPRWYFYYLGTGPHAKDQYGTDIDGVYWVASNQADVNTPADIVDRDPSSDEAIPTRFPPGTVLPQGYYIEGSGRSAPNSRSTSRTSSRASSAGSRSRANSGNRTPTSGVTPDMADQIASLVLAKLGKDATKPQQVTKHTAKEVRQKILNKPRQKRSPNKQCTVQQCFGKRGPNQNFGGGEMLKLGTSDPQFPILAELAPTAGAFFFGSRLELAKVQNLSGNPDEPQKDVYELRYNGAIRFDSTLSGFETIMKVLNENLNAYQQQDGMMNMSPKPQRQRGHKNGQGENDNISVAVPKSRVQQNKSRELTAEDISLLKKMDEPYTEDTSEI
B2: CCL13 (ligand)
chain: not shown
B3: CXCL11 (ligand)
chain: FPMFKRGRCLCIGPGVKAVKVADIEKASIMYPSNNCDKIEVIITLKENKGQRCLNPKSKQARLIIKKVERKNF
B4: CXCL13 (ligand)
chain: VLEVYYTSLRCRCVQESSVFIPRRFIDRIQILPRGNGCPRKEIIVWKKNKSIVCVDPQAEWIQRMMEVLRKRSSSTLPVPVFKRKIP
B5: CCL11 (ligand)
chain: not shown
B6: CCL25 (ligand)
chain: QGVFEDCCLAYHYPIGWAVLRRAWTYRIQEVSGSCNLPAAIFYLPKRHRKVCGNPKSREVQRAMKLLDARNKVFAKLHHNTQTFQAGPHAVKKLSSGNSKLSSSKFSNPISSSKRNVSLLISANSGL
B7: CXCL14 (ligand)
chain: SKCKCSRKGPKIRYSDVKKLEMKPKYPHCEEKMVIITTKSVSRYRGQEHCLHPKLQSTKRFIKWYNAWNEKRRVYEE
B8: CXCL9 (ligand)
chain: TPVVRKGRCSCISTNQGTIHLQSLKDLKQFAPSPSCEKIEIIATLKNGVQTCLNPDSADVKELIKKWEKQVSQKKKQKNGKKHQKKKVLKVRKSQRSRQKKTT
B9: CCL26 (ligand)
chain: TRGSDISKTCCFQYSHKPLPWTWVRSYEFTSNSCSQRAVIFTTKRGKKVCTHPRKKWVQKYISLLKTPKQL
B10: CCL28 (ligand)
chain: SEAILPIASSCCTEVSHHISRRLLERVNMCRIQRADGDCDLAAVILHVKRRRICVSPHNHTVKQWMKVQAAKKNGKGNVCHRKKHHGKRNSNRAHQGKHETYGHKTPY
B11: CCL21 (ligand)
chain: SDGGAQDCCLKYSQRKIPAKVVRSYRKQEPSLGCSIPAILFLPRKRSQAELCADPKELWVQQLMQHLDKTPSPQKPAQGCRKDRGASKTGKKGKGSKGCKRTERSQTPKGP
B12: CCL5 (ligand)
chain: SPYSSDTTPCCFAYIARPLPRAHIKEYFYTSGKCSNPAVVFVTRKNRQVCANPEKKWVREYINSLEMS
B13: IL27 (complex)
chain 1: FPRPPGRPQLSLQELRREFTVSLHLARKLLSEVRGQAHRFAESHLPGVNLYLLPLGEQLPDVSLTFQAWRRLSDPERLCFISTTLQPFHALLGGLGTQGRWTNMERMQLWAMRLDLRDLQRHLRFQVLAAGFNLPEEEEEEEEEEEEERKGLLPGALGSALQGPAQVSWPQLLSTYRLLHSLELVLSRAVRELLLLSKAGHSVWPLGFPTLSPQP
chain 2: RKGPPAALTLPRVQCRASRYPIAVDCSWTLPPAPNSTSPVSFIATYRLGMAARGHSWPCLQQTPTSTSCTITDVQLFSMAPYVLNVTAVHPWGSSSSFVPFITEHIIKPDPPEGVRLSPLAERQLQVQWEPPGSWPFPEIFSLKYWIRYKRQGAARFHRVGPIEATSFILRAVRPRARYYVQVAAQDLTDYGELSDWSLPATATMSLGK

The target of the first assay is CXCL12α (human, UniProt P48061-2 22-89). The experiment in a line: BLI.
CXCL12α, sequence (P48061 22-89): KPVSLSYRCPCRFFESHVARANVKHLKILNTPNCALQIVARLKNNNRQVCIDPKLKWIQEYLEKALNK
In turn, B1 displayed a dissociation constant (Kd) of 0.46 nM, a koff of 3.7e-05 s⁻¹ and an on-rate constant (kon) of 62000 M⁻¹ s⁻¹.

Another assay deals with B1. The experiment in a line: BLI.
On to B2, for which binding was characterised by a dissociation constant (Kd) of 1600 nM, the koff was 0.025 s⁻¹ and the on-rate (kon) came out at 19000 M⁻¹ s⁻¹.

B3 yielded an equilibrium dissociation constant (Kd) of 730 nM, a koff of 0.012 s⁻¹ and a kon of 18000 M⁻¹ s⁻¹.

B4 gave a Kd of 140 nM, an off-rate constant (koff) of 0.0046 s⁻¹ and a kon of 44000 M⁻¹ s⁻¹.

With B5, binding was put at a Kd of 1400 nM, the koff came out at 0.021 s⁻¹ and the kon is 17000 M⁻¹ s⁻¹.

B6 displayed a Kd of 610 nM, a koff of 0.0048 s⁻¹ and an on-rate constant (kon) of 8300 M⁻¹ s⁻¹.

In turn, B7 displayed a Kd of 580 nM, an off-rate (koff) of 0.0063 s⁻¹ and a kon of 12000 M⁻¹ s⁻¹.

Turning to B8, the affinity, expressed as Kd, was 29 nM; the off-rate constant (koff) was 0.0022 s⁻¹; the on-rate constant (kon) amounted to 82000 M⁻¹ s⁻¹.

B9 returned a dissociation constant (Kd) of 620 nM, a koff of 0.014 s⁻¹ and an on-rate (kon) of 20000 M⁻¹ s⁻¹.

For the molecule B10, the affinity, expressed as Kd, was 27 nM; the koff turned out to be 0.0015 s⁻¹; the association rate constant (kon) turned out to be 60000 M⁻¹ s⁻¹.

With B11, binding was put at a Kd of 290 nM, the koff stood at 0.012 s⁻¹ and the kon amounted to 67000 M⁻¹ s⁻¹.

Molecule B12 returned a dissociation constant (Kd) of 56000 nM, a koff of 0.015 s⁻¹ and a kon of 2100 M⁻¹ s⁻¹.

In turn, B13 yielded a Kd of 55 nM, an off-rate (koff) of 0.0024 s⁻¹ and a kon of 51000 M⁻¹ s⁻¹.
